Measurements: US20150344570A1 (published 2015)
Read-outs that look alike come from different tables or passages of the source.

T1: FcγRIIb extracellular domain with C-terminal His tag (human, UniProt P31994 43-217)
T1 construct: extracellular domain; Soluble receptor used as analyte in Biacore; also called FcgRIIb
T1 sequence (looked up): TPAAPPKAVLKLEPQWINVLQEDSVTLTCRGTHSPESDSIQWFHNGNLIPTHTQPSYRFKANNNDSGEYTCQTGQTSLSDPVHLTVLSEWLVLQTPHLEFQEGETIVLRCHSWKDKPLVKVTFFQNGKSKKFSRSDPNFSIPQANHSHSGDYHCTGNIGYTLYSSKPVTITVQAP


Assays:
[1] = molecular target: T2, FcγRIa extracellular domain with C-terminal His tag (human, UniProt P12314 16-292); assay: SPR (Biacore), antibody captured, FcγR as analyte; binding relative to GpH7-A5/GpH7-B3/GpL16-k0 = 100
T2 construct: extracellular domain; Soluble receptor used as analyte in Biacore; also called FcgRI
T2 sequence (P12314 16-292): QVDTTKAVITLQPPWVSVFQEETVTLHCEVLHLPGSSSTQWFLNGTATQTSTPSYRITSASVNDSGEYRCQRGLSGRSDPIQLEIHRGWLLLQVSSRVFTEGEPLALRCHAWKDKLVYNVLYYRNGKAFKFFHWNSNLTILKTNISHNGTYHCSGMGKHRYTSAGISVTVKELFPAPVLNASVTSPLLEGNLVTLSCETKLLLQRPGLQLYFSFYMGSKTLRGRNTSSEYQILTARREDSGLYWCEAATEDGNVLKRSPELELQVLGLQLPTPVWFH

[2] = molecular target: T1, FcγRIIb extracellular domain with …; assay: as above
[3] = molecular target: T2, FcγRIa extracellular domain with …; assay: as above; remark: listed apart in the source
[4] = molecular target: T1, FcγRIIb extracellular domain with …; assay: as above; remark: listed apart in the source
[5] = molecular target: T2, FcγRIa extracellular domain with …; assay: ratio He/Con_1a : He/Con_2b (FcγRIa over FcγRIIb), SPR (Biacore)

Binder | He/Con_1a [1] [control = 100] | He/Con_2b [2] [control = 100] | He/Con_1a [3] [control = 100] | He/Con_2b [4] [control = 100] | He_1a/2b (Ia/IIb) [5]
GpH7-A5/GpH7-B3 variant I332_02A/GpL16-k0 (antibody, human IgG1, kappa, Heterodimerized IgG1, mutation in the GpH7-B3 chain only; also called He Ab) heavy 1: not shown heavy 2: not shown light: DIVMTQSPLSLPVTPGEPASISCQASESLVHSNRNTYLHWYLQKPGQSPQLLIYKVSNRFSGVPDRFSGSGSGTDFTLKISRVEAEDVGVYYCSQNTHVPPTFGQGTKVEIERTVAAPSVFIFPPSDEQLKSGTASVVCLLNNFYPREAKVQWKVDNALQSGNSQESVTEQDSKDSTYSLSSTLTLSKADYEKHKVYACEVTHQGLSSPVTKSFNRGEC | 88.3 | 103 | – | – | –
GpH7-A5/GpH7-B3 variant S267_03V/GpL16-k0 (antibody, human IgG1, kappa, Heterodimerized IgG1, mutation in the GpH7-B3 chain only; also called He Ab) heavy 1: not shown heavy 2: not shown light: DIVMTQSPLSLPVTPGEPASISCQASESLVHSNRNTYLHWYLQKPGQSPQLLIYKVSNRFSGVPDRFSGSGSGTDFTLKISRVEAEDVGVYYCSQNTHVPPTFGQGTKVEIERTVAAPSVFIFPPSDEQLKSGTASVVCLLNNFYPREAKVQWKVDNALQSGNSQESVTEQDSKDSTYSLSSTLTLSKADYEKHKVYACEVTHQGLSSPVTKSFNRGEC | – | – | 106 | 192 | 0.55
GpH7-A5/GpH7-B3 variant P271_01G/GpL16-k0 (antibody, human IgG1, kappa, Heterodimerized IgG1, mutation in the GpH7-B3 chain only; also called He Ab) heavy 1: not shown heavy 2: not shown light: DIVMTQSPLSLPVTPGEPASISCQASESLVHSNRNTYLHWYLQKPGQSPQLLIYKVSNRFSGVPDRFSGSGSGTDFTLKISRVEAEDVGVYYCSQNTHVPPTFGQGTKVEIERTVAAPSVFIFPPSDEQLKSGTASVVCLLNNFYPREAKVQWKVDNALQSGNSQESVTEQDSKDSTYSLSSTLTLSKADYEKHKVYACEVTHQGLSSPVTKSFNRGEC | – | – | 105 | 193 | 0.54
GpH7-A5/GpH7-B3 variant S267_10E/GpL16-k0 (antibody, human IgG1, kappa, Heterodimerized IgG1, mutation in the GpH7-B3 chain only; also called He Ab) heavy 1: not shown heavy 2: not shown light: DIVMTQSPLSLPVTPGEPASISCQASESLVHSNRNTYLHWYLQKPGQSPQLLIYKVSNRFSGVPDRFSGSGSGTDFTLKISRVEAEDVGVYYCSQNTHVPPTFGQGTKVEIERTVAAPSVFIFPPSDEQLKSGTASVVCLLNNFYPREAKVQWKVDNALQSGNSQESVTEQDSKDSTYSLSSTLTLSKADYEKHKVYACEVTHQGLSSPVTKSFNRGEC | – | – | 106 | 379 | 0.28
GpH7-A5/GpH7-B3 variant V266_08L/GpL16-k0 (antibody, human IgG1, kappa, Heterodimerized IgG1, mutation in the GpH7-B3 chain only; also called He Ab) heavy 1: not shown heavy 2: not shown light: DIVMTQSPLSLPVTPGEPASISCQASESLVHSNRNTYLHWYLQKPGQSPQLLIYKVSNRFSGVPDRFSGSGSGTDFTLKISRVEAEDVGVYYCSQNTHVPPTFGQGTKVEIERTVAAPSVFIFPPSDEQLKSGTASVVCLLNNFYPREAKVQWKVDNALQSGNSQESVTEQDSKDSTYSLSSTLTLSKADYEKHKVYACEVTHQGLSSPVTKSFNRGEC | – | – | 98.1 | 236 | 0.42
GpH7-A5/GpH7-B3 variant I332_04F/GpL16-k0 (antibody, human IgG1, kappa, Heterodimerized IgG1, mutation in the GpH7-B3 chain only; also called He Ab) heavy 1: not shown heavy 2: not shown light: DIVMTQSPLSLPVTPGEPASISCQASESLVHSNRNTYLHWYLQKPGQSPQLLIYKVSNRFSGVPDRFSGSGSGTDFTLKISRVEAEDVGVYYCSQNTHVPPTFGQGTKVEIERTVAAPSVFIFPPSDEQLKSGTASVVCLLNNFYPREAKVQWKVDNALQSGNSQESVTEQDSKDSTYSLSSTLTLSKADYEKHKVYACEVTHQGLSSPVTKSFNRGEC | 93.6 | 104 | – | – | –
GpH7-A5/GpH7-B3 variant K326_14T/GpL16-k0 (antibody, human IgG1, kappa, Heterodimerized IgG1, mutation in the GpH7-B3 chain only; also called He Ab) heavy 1: not shown heavy 2: not shown light: DIVMTQSPLSLPVTPGEPASISCQASESLVHSNRNTYLHWYLQKPGQSPQLLIYKVSNRFSGVPDRFSGSGSGTDFTLKISRVEAEDVGVYYCSQNTHVPPTFGQGTKVEIERTVAAPSVFIFPPSDEQLKSGTASVVCLLNNFYPREAKVQWKVDNALQSGNSQESVTEQDSKDSTYSLSSTLTLSKADYEKHKVYACEVTHQGLSSPVTKSFNRGEC | – | – | 104 | 150 | 0.7
GpH7-A5/GpH7-B3 variant K326_19Q/GpL16-k0 (antibody, human IgG1, kappa, Heterodimerized IgG1, mutation in the GpH7-B3 chain only; also called He Ab) heavy 1: not shown heavy 2: not shown light: DIVMTQSPLSLPVTPGEPASISCQASESLVHSNRNTYLHWYLQKPGQSPQLLIYKVSNRFSGVPDRFSGSGSGTDFTLKISRVEAEDVGVYYCSQNTHVPPTFGQGTKVEIERTVAAPSVFIFPPSDEQLKSGTASVVCLLNNFYPREAKVQWKVDNALQSGNSQESVTEQDSKDSTYSLSSTLTLSKADYEKHKVYACEVTHQGLSSPVTKSFNRGEC | – | – | 102 | 139 | 0.73
GpH7-A5/GpH7-B3 variant S267_07I/GpL16-k0 (antibody, human IgG1, kappa, Heterodimerized IgG1, mutation in the GpH7-B3 chain only; also called He Ab) heavy 1: not shown heavy 2: not shown light: DIVMTQSPLSLPVTPGEPASISCQASESLVHSNRNTYLHWYLQKPGQSPQLLIYKVSNRFSGVPDRFSGSGSGTDFTLKISRVEAEDVGVYYCSQNTHVPPTFGQGTKVEIERTVAAPSVFIFPPSDEQLKSGTASVVCLLNNFYPREAKVQWKVDNALQSGNSQESVTEQDSKDSTYSLSSTLTLSKADYEKHKVYACEVTHQGLSSPVTKSFNRGEC | – | – | 100 | 192 | 0.52
GpH7-A5/GpH7-B3 variant K326_15Y/GpL16-k0 (antibody, human IgG1, kappa, Heterodimerized IgG1, mutation in the GpH7-B3 chain only; also called He Ab) heavy 1: not shown heavy 2: not shown light: DIVMTQSPLSLPVTPGEPASISCQASESLVHSNRNTYLHWYLQKPGQSPQLLIYKVSNRFSGVPDRFSGSGSGTDFTLKISRVEAEDVGVYYCSQNTHVPPTFGQGTKVEIERTVAAPSVFIFPPSDEQLKSGTASVVCLLNNFYPREAKVQWKVDNALQSGNSQESVTEQDSKDSTYSLSSTLTLSKADYEKHKVYACEVTHQGLSSPVTKSFNRGEC | – | – | 106 | 159 | 0.66
GpH7-A5/GpH7-B3 variant S267_09D/GpL16-k0 (antibody, human IgG1, kappa, Heterodimerized IgG1, mutation in the GpH7-B3 chain only; also called He Ab) heavy 1: not shown heavy 2: not shown light: DIVMTQSPLSLPVTPGEPASISCQASESLVHSNRNTYLHWYLQKPGQSPQLLIYKVSNRFSGVPDRFSGSGSGTDFTLKISRVEAEDVGVYYCSQNTHVPPTFGQGTKVEIERTVAAPSVFIFPPSDEQLKSGTASVVCLLNNFYPREAKVQWKVDNALQSGNSQESVTEQDSKDSTYSLSSTLTLSKADYEKHKVYACEVTHQGLSSPVTKSFNRGEC | – | – | 110 | 310 | 0.35
GpH7-A5/GpH7-B3 variant S267_19Q/GpL16-k0 (antibody, human IgG1, kappa, Heterodimerized IgG1, mutation in the GpH7-B3 chain only; also called He Ab) heavy 1: not shown heavy 2: not shown light: DIVMTQSPLSLPVTPGEPASISCQASESLVHSNRNTYLHWYLQKPGQSPQLLIYKVSNRFSGVPDRFSGSGSGTDFTLKISRVEAEDVGVYYCSQNTHVPPTFGQGTKVEIERTVAAPSVFIFPPSDEQLKSGTASVVCLLNNFYPREAKVQWKVDNALQSGNSQESVTEQDSKDSTYSLSSTLTLSKADYEKHKVYACEVTHQGLSSPVTKSFNRGEC | – | – | 102 | 218 | 0.47
GpH7-A5/GpH7-B3 variant V266_12R/GpL16-k0 (antibody, human IgG1, kappa, Heterodimerized IgG1, mutation in the GpH7-B3 chain only; also called He Ab) heavy 1: not shown heavy 2: not shown light: DIVMTQSPLSLPVTPGEPASISCQASESLVHSNRNTYLHWYLQKPGQSPQLLIYKVSNRFSGVPDRFSGSGSGTDFTLKISRVEAEDVGVYYCSQNTHVPPTFGQGTKVEIERTVAAPSVFIFPPSDEQLKSGTASVVCLLNNFYPREAKVQWKVDNALQSGNSQESVTEQDSKDSTYSLSSTLTLSKADYEKHKVYACEVTHQGLSSPVTKSFNRGEC | – | – | 59.2 | -1.1 | -55.6
GpH7-A5/GpH7-B3 variant I332_06M/GpL16-k0 (antibody, human IgG1, kappa, Heterodimerized IgG1, mutation in the GpH7-B3 chain only; also called He Ab) heavy 1: not shown heavy 2: not shown light: DIVMTQSPLSLPVTPGEPASISCQASESLVHSNRNTYLHWYLQKPGQSPQLLIYKVSNRFSGVPDRFSGSGSGTDFTLKISRVEAEDVGVYYCSQNTHVPPTFGQGTKVEIERTVAAPSVFIFPPSDEQLKSGTASVVCLLNNFYPREAKVQWKVDNALQSGNSQESVTEQDSKDSTYSLSSTLTLSKADYEKHKVYACEVTHQGLSSPVTKSFNRGEC | 92.3 | 105 | – | – | –
GpH7-A5/GpH7-B3 variant K326_20W/GpL16-k0 (antibody, human IgG1, kappa, Heterodimerized IgG1, mutation in the GpH7-B3 chain only; also called He Ab) heavy 1: not shown heavy 2: not shown light: DIVMTQSPLSLPVTPGEPASISCQASESLVHSNRNTYLHWYLQKPGQSPQLLIYKVSNRFSGVPDRFSGSGSGTDFTLKISRVEAEDVGVYYCSQNTHVPPTFGQGTKVEIERTVAAPSVFIFPPSDEQLKSGTASVVCLLNNFYPREAKVQWKVDNALQSGNSQESVTEQDSKDSTYSLSSTLTLSKADYEKHKVYACEVTHQGLSSPVTKSFNRGEC | – | – | 103 | 148 | 0.69
GpH7-A5/GpH7-B3 variant S267_06M/GpL16-k0 (antibody, human IgG1, kappa, Heterodimerized IgG1, mutation in the GpH7-B3 chain only; also called He Ab) heavy 1: not shown heavy 2: not shown light: DIVMTQSPLSLPVTPGEPASISCQASESLVHSNRNTYLHWYLQKPGQSPQLLIYKVSNRFSGVPDRFSGSGSGTDFTLKISRVEAEDVGVYYCSQNTHVPPTFGQGTKVEIERTVAAPSVFIFPPSDEQLKSGTASVVCLLNNFYPREAKVQWKVDNALQSGNSQESVTEQDSKDSTYSLSSTLTLSKADYEKHKVYACEVTHQGLSSPVTKSFNRGEC | – | – | 106 | 210 | 0.51
GpH7-A5/GpH7-B3 variant S267_02A/GpL16-k0 (antibody, human IgG1, kappa, Heterodimerized IgG1, mutation in the GpH7-B3 chain only; also called He Ab) heavy 1: not shown heavy 2: not shown light: DIVMTQSPLSLPVTPGEPASISCQASESLVHSNRNTYLHWYLQKPGQSPQLLIYKVSNRFSGVPDRFSGSGSGTDFTLKISRVEAEDVGVYYCSQNTHVPPTFGQGTKVEIERTVAAPSVFIFPPSDEQLKSGTASVVCLLNNFYPREAKVQWKVDNALQSGNSQESVTEQDSKDSTYSLSSTLTLSKADYEKHKVYACEVTHQGLSSPVTKSFNRGEC | – | – | 109 | 243 | 0.45
GpH7-A5/GpH7-B3 variant V266_07I/GpL16-k0 (antibody, human IgG1, kappa, Heterodimerized IgG1, mutation in the GpH7-B3 chain only; also called He Ab) heavy 1: not shown heavy 2: not shown light: DIVMTQSPLSLPVTPGEPASISCQASESLVHSNRNTYLHWYLQKPGQSPQLLIYKVSNRFSGVPDRFSGSGSGTDFTLKISRVEAEDVGVYYCSQNTHVPPTFGQGTKVEIERTVAAPSVFIFPPSDEQLKSGTASVVCLLNNFYPREAKVQWKVDNALQSGNSQESVTEQDSKDSTYSLSSTLTLSKADYEKHKVYACEVTHQGLSSPVTKSFNRGEC | – | – | 99.3 | 152 | 0.65
